Laboratory results published in patent US7939292B2, “Modified heparinase III and methods of sequencing therewith” (Massachusetts Institute of Technology, priority 2000, dated 2011).

How the values were obtained:
[1] = SAX-HPLC analysis of exhaustive heparan sulfate digests; type: biochemical; conditions: for catalytic activity in overnight heparan sulfate digests: SAX-HPLC, overnight 37° C.
Description: Exhaustive digests of 3 mg/ml heparan sulfate in 50 mM sodium phosphate buffer, pH 7.6 were performed overnight at 37° C. for each of the mutants (20 μg protein). The reactions were loaded onto a Spherisorb S5 SAX column (Waters) and eluted using a linear gradient of 0.2-1.0 M NaCl, pH 3.5. The products were monitored at 232 nm and each of the major peaks was collected. To determine their composition, the collected fractions were analyzed by capillary electrophoresis and identified by comigration with known standards.
As a control, the r-heparinase III construct without its putative signal sequence was expressed. The concentration and purity of all recombinant enzyme preparations were determined using SDS-PAGE. The recombinantly expressed heparinase III was also compared to the heparinase III isolated from F. heparinum to ensure that they were the same molecular weight. Heparinase III (20 μg/mL) was incubated with a 4 mg/mL of heparan sulfate overnight at 37° C. The reaction was loaded onto a SAX column and the saccharide products were eluted using a gradient of 0.2-1.0 M NaCl, pH 3.5 over 30 min. and monitored at 232 nm. (A) Heparan sulfate digested with heparinase III from F. heparinum. (B) Heparan sulfate digested with recombinant heparinase III. (C) Heparan sulfate digested with the H295A mutant enzyme. (D) Heparan sulfate digested with the H510A mutant enzyme. (E) Heparan sulfate digested with the H105A mutant enzyme.

[2] = Heparinase III kinetic assay of r-heparinase III and histidine mutants; type: biochemical; conditions: heparan sulfate; for Km: calculated assuming a molecular weight of 15 kDa
Description: The activity of heparinase III was measured using a UV 232 nm assay similar to those reported for heparinase I and heparinase II (Godavarti, R., Cooney, C. L., Langer, R., and Sasisekharan, R. (1996) Biochemistry 35, 6846-52; Shriver, Z., Hu, Y., and Sasisekharan, R. (1998) J. Biol. Chem. 273, 10160-67; and Lohse, D. and Linhardt, R. J. (1992) J. Biol. Chem. 267, 781-87). Briefly, the increase in absorbance at 232 nm as a function of time was monitored under saturating substrate conditions. All assays were performed with heparan sulfate at a concentration of 2 mg/ml in 50 mM sodium phosphate, pH 7.6. The temperature for enzymatic activity measurements was kept constant at 35° C.
In parallel to the mapping studies and to confirm the results of the chemical modification experiments, each of the thirteen histidine residues present in heparinase III was mutated to alanine. The recombinant heparinase III mutant proteins were expressed, purified, and assessed for enzymatic activity towards heparan sulfate (Table 2).

| Molecule | catalytic activity in overnight heparan sulfate digests [1] | kcat [2] | Km [2] | heparan sulfate degradation product profile compared to wild type heparinase III ([1]; SAX-HPLC and capillary electrophoresis) |
| --- | --- | --- | --- | --- |
| H105A: recombinant heparinase III with histidine 105 mutated to alanine (protein) MTTKIFKRIIVFAVIALSSGNILAQSSSITRKDFDHINLEYSGLEKVNKAVAAGNYDDAAKALLAYYREKSKAREPDFSNAEKPADIRQPIDKVTREMADKALVAQFQPHKGYGYFDYGKDINWQMWPVKDNEVRWQLHRVKWWQAMALVYHATGDEKYAREWVYQYSDWARKNPLGLSQDNDKFVWRPLEVSDRVQSLPPTFSLFVNSPAFTPAFLMEFLNSYHQQADYLSTHYAEQGNHRLFEAQRNLFAGVSFPEFKDSPRWRQTGISVLNTEIKKQVYADGMQFELSPIYHVAAIDIFLKAYGSAKRVNLEKEFPQSYVQTVENMIMALISISLPDYNTPMFGDSWITDKNFRMAQFASWARVFPANQAIKYFATDGKQGKAPNFLSKALSNAGFYTFRSGWDKNATVMVLKASPPGEFHAQPDNGTFELFIKGRNFTPDAGVFVYSGDEAIMKLRNWYRQTRIHSTLTLDNQNMVITKARQNKWETGNNLDVLTYTNPSYPNLDHQRSVLFINKKYFLVIDRAIGEATGNLGVHWQLKEDSNPVFDKTKNRVYTTYRDGNNLMIQSLNADRTSLNEEEGKVSYVYNKELKRPAFVFEKPKKNAGTQNFVSIVYPYDGQKAPEISIRENKGNDFEKGKLNLTLTINGKQQLVLVP | retain their catalytic activity |  |  |  |
| H110A: recombinant heparinase III with histidine 110 mutated to alanine (protein) MTTKIFKRIIVFAVIALSSGNILAQSSSITRKDFDHINLEYSGLEKVNKAVAAGNYDDAAKALLAYYREKSKAREPDFSNAEKPADIRQPIDKVTREMADKALVHQFQPAKGYGYFDYGKDINWQMWPVKDNEVRWQLHRVKWWQAMALVYHATGDEKYAREWVYQYSDWARKNPLGLSQDNDKFVWRPLEVSDRVQSLPPTFSLFVNSPAFTPAFLMEFLNSYHQQADYLSTHYAEQGNHRLFEAQRNLFAGVSFPEFKDSPRWRQTGISVLNTEIKKQVYADGMQFELSPIYHVAAIDIFLKAYGSAKRVNLEKEFPQSYVQTVENMIMALISISLPDYNTPMFGDSWITDKNFRMAQFASWARVFPANQAIKYFATDGKQGKAPNFLSKALSNAGFYTFRSGWDKNATVMVLKASPPGEFHAQPDNGTFELFIKGRNFTPDAGVFVYSGDEAIMKLRNWYRQTRIHSTLTLDNQNMVITKARQNKWETGNNLDVLTYTNPSYPNLDHQRSVLFINKKYFLVIDRAIGEATGNLGVHWQLKEDSNPVFDKTKNRVYTTYRDGNNLMIQSLNADRTSLNEEEGKVSYVYNKELKRPAFVFEKPKKNAGTQNFVSIVYPYDGQKAPEISIRENKGNDFEKGKLNLTLTINGKQQLVLVP | retain their catalytic activity | 37 s⁻¹ | 9 µM |  |
| H139A: recombinant heparinase III with histidine 139 mutated to alanine (protein) MTTKIFKRIIVFAVIALSSGNILAQSSSITRKDFDHINLEYSGLEKVNKAVAAGNYDDAAKALLAYYREKSKAREPDFSNAEKPADIRQPIDKVTREMADKALVHQFQPHKGYGYFDYGKDINWQMWPVKDNEVRWQLARVKWWQAMALVYHATGDEKYAREWVYQYSDWARKNPLGLSQDNDKFVWRPLEVSDRVQSLPPTFSLFVNSPAFTPAFLMEFLNSYHQQADYLSTHYAEQGNHRLFEAQRNLFAGVSFPEFKDSPRWRQTGISVLNTEIKKQVYADGMQFELSPIYHVAAIDIFLKAYGSAKRVNLEKEFPQSYVQTVENMIMALISISLPDYNTPMFGDSWITDKNFRMAQFASWARVFPANQAIKYFATDGKQGKAPNFLSKALSNAGFYTFRSGWDKNATVMVLKASPPGEFHAQPDNGTFELFIKGRNFTPDAGVFVYSGDEAIMKLRNWYRQTRIHSTLTLDNQNMVITKARQNKWETGNNLDVLTYTNPSYPNLDHQRSVLFINKKYFLVIDRAIGEATGNLGVHWQLKEDSNPVFDKTKNRVYTTYRDGNNLMIQSLNADRTSLNEEEGKVSYVYNKELKRPAFVFEKPKKNAGTQNFVSIVYPYDGQKAPEISIRENKGNDFEKGKLNLTLTINGKQQLVLVP | retain their catalytic activity | 68 s⁻¹ | 191 µM |  |
| wild-type r-heparinase III: recombinantly expressed heparinase III construct without its putative signal sequence, His-tagged, from E. coli (protein, UniProt Q59289 25-659, looked up, His tag; no signal sequence) Heparin-sulfate lyase: QSSSITRKDFDHINLEYSGLEKVNKAVAAGNYDDAAKALLAYYREKSKAREPDFSNAEKPADIRQPIDKVTREMADKALVHQFQPHKGYGYFDYGKDINWQMWPVKDNEVRWQLHRVKWWQAMALVYHATGDEKYAREWVYQYSDWARKNPLGLSQDNDKFVWRPLEVSDRVQSLPPTFSLFVNSPAFTPAFLMEFLNSYHQQADYLSTHYAEQGNHRLFEAQRNLFAGVSFPEFKDSPRWRQTGISVLNTEIKKQVYADGMQFELSPIYHVAAIDIFLKAYGSAKRVNLEKEFPQSYVQTVENMIMALISISLPDYNTPMFGDSWITDKNFRMAQFASWARVFPANQAIKYFATDGKQGKAPNFLSKALSNAGFYTFRSGWDKNATVMVLKASPPGEFHAQPDNGTFELFIKGRNFTPDAGVFVYSGDEAIMKLRNWYRQTRIHSTLTLDNQNMVITKARQNKWETGNNLDVLTYTNPSYPNLDHQRSVLFINKKYFLVIDRAIGEATGNLGVHWQLKEDSNPVFDKTKNRVYTTYRDGNNLMIQSLNADRTSLNEEEGKVSYVYNKELKRPAFVFEKPKKNAGTQNFVSIVYPYDGQKAPEISIRENKGNDFEKGKLNLTLTINGKQQLVLVP |  | 78 s⁻¹ | 80 µM | identical product profile |
